Source: paper PMC5138414, “Structural Basis for Redox Regulation of Cytoplasmic and Chloroplastic Triosephosphate Isomerases from Arabidopsis thaliana” (Frontiers in Plant Science, 2016)
Residue numbers refer to the chain shown, from its start. Names and notes keep the numbering of the source.

B1: cTPI-C218S (enzyme, Arabidopsis thaliana, UniProt P48491 1-254, looked up)
chain: MARKFFVGGNWKCNGTAEEVKKIVNTLNEAQVPSQDVVEVVVSPPYVFLPLVKSTLRSDFFVAAQNCWVKKGGAFTGEVSAEMLVNLDIPWVILGHSERRAILNESSEFVGDKVAYALAQGLKVIACVGETLEEREAGSTMDVVAAQTKAIADRVTNWSNVVIAYEPVWAIGTGKVASPAQAQEVHDELRKWLAKNVSADVAATTRIIYGGSVNGGNSKELGGQADVDGFLVGGASLKPEFIDIIKAAEVKKSA
notes: cytoplasmic triosephosphate isomerase, Arabidopsis thaliana, At3g55440, point mutant; Made by site-directed mutagenesis of the cTPI construct; source: E. coli BL21 (DE3) Δtpi, purified (IMAC His-Trap FF, Superdex 75)
B2: cTPI-C13S/C218S (enzyme, Arabidopsis thaliana, UniProt P48491 1-254, looked up)
chain: B1 chain with C13S
notes: cytoplasmic triosephosphate isomerase, Arabidopsis thaliana, At3g55440, double mutant; Made by site-directed mutagenesis of the cTPI construct; also called cTPI double mutant; source: E. coli BL21 (DE3) Δtpi, purified (IMAC His-Trap FF, Superdex 75)
B3: cTPI-C13S (enzyme, Arabidopsis thaliana, UniProt P48491 1-254, looked up)
chain: B1 chain with C13S, S218C
notes: as for B1

Target: the molecule itself
Assay: SEC; analytical size-exclusion chromatography, Superdex 75 10/300GL, calibrated with Bio-Rad gel filtration standard, 0.5 mL/min, 100 mM TEA pH 7.4, 10 mM EDTA, 1 mM DTT; dimer of identical subunits

| Protein | binding result | stoichiometry N |
| --- | --- | --- |
| B1 | binds |  |
| B2 |  | 2 |
| B3 |  | 2 |
